# Results from publication PMC3605678 (The Journal of Biological Chemistry, 2013).
# B1: PB1-D: MKK5 construct (16–130) comprised of the PB1 domain and the linear D-motif (protein, UniProt Q13163 16-130, looked up, fragment)
# chain: VLVIRIKIPNSGAVDWTVHSGPQLLFRDVLDVIGQVLPEATTTAFEYEDEDGDRITVRSDEEMKAMLSYYYSTVMEQQVNGQLIEPLQIFPRACKPPGERNIHGLKVNTRAGPSQ
# modifications: PB1 domain and D-motif
# Legend:
# ERK2 = ERK2 (Homo sapiens, UniProt P28482); assay: FP-based binding affinity measurements with ERK2, direct titration
# ERK2, sequence (P28482 whole entry, the tested form may be a part): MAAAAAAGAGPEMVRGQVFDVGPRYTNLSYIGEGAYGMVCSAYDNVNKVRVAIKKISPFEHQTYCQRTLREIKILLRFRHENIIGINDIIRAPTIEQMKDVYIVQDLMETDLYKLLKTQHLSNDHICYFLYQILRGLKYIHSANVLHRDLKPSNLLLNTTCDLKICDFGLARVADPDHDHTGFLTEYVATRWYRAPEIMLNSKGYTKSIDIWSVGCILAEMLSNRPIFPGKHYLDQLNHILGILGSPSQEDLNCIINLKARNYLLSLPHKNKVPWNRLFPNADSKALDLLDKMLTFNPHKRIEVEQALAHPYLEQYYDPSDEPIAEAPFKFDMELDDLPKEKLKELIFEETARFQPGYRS
# [1] = biological target: ERK5 kinase domain, ERK5-(1–431) (Homo sapiens, UniProt Q13164); assay: Fluorescence polarization; details: FP-based binding affinity measurements
# ERK5 kinase domain, ERK5-(1–431), sequence (Q13164 1-431): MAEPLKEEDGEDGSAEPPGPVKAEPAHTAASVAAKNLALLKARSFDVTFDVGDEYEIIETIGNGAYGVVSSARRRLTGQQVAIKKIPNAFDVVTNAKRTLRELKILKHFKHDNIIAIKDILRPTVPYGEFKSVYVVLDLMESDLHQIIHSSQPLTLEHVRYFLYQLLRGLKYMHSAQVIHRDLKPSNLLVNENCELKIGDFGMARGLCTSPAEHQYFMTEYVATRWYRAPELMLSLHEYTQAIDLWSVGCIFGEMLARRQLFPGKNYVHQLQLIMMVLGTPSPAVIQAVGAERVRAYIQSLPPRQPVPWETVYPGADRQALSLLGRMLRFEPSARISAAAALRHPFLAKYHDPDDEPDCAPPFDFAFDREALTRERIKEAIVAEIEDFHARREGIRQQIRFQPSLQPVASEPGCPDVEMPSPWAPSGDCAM
molecule,measurement,setting,value
B1,Binding to ERK2 (result in words),ERK2,did not bind
same,Binding to ERK5 (result in words),[1],submicromolar affinity
